Test results published in FireProtDB (doi:10.1016/j.jmb.2005.05.056).
Where “and” joins values, the source holds several entries; their conditions need not be identical. Equal entries are not always repeated.

B1: Small ribosomal subunit protein bS6, P23370 (parent)
chain: MRRYEVNIVLNPNLDQSQLALEKEIIQRALENYGARVEKVEELGLRRLAYPIAKDPQGYFLWYQVEMPEDRVNDLARELRIRDNVRRVMVVKSQEPFLANA

Variants of: B1
Conditions: Thermus thermophilus; pH 8; 25 °C; GdnHCl; Fluorescence; Tris-HCl 50 mM; reversible: No; structure 1RIS; whole UniProt chain shown

Variant | denaturant m value | denaturant midpoint (higher = more stable) | unfolding free energy | ddG of mutation (higher = less stable)
Y33A | 2.83 kcal/mol/M and 3.26 kcal/mol/M and 2.34 kcal/mol/M | 3.05 M and 3.65 M and 3.82 M | 8.6 kcal/mol and 11.9 kcal/mol and 8.9 kcal/mol | 
I26A | 2.47 kcal/mol/M and 2.61 kcal/mol/M and 2.62 kcal/mol/M | 2.09 M and 2.46 M and 2.97 M | 5.2 kcal/mol and 6.4 kcal/mol and 7.8 kcal/mol | 2.8 kcal/mol and 3 kcal/mol and 3.2 kcal/mol
A35G | 2.91 kcal/mol/M and 2.95 kcal/mol/M | 3.03 M and 3.5 M | 8.8 kcal/mol and 10.3 kcal/mol | 0.6 kcal/mol and 0.7 kcal/mol
L75A | 3.13 kcal/mol/M and 2.95 kcal/mol/M and 3.19 kcal/mol/M | 2.71 M and 2.95 M and 3.24 M | 8.5 kcal/mol and 8.7 kcal/mol and 10.3 kcal/mol | 0.9 kcal/mol and 0.8 kcal/mol and 0.7 kcal/mol
V85A | 2.51 kcal/mol/M and 2.84 kcal/mol/M | 2.05 M and 2.54 M | 5.1 kcal/mol and 7.2 kcal/mol | 2.9 kcal/mol and 2.3 kcal/mol
I8A | 2.78 kcal/mol/M and 2.44 kcal/mol/M and 2.83 kcal/mol/M | 1.82 M and 2.05 M and 2.35 M | 5.1 kcal/mol and 5 kcal/mol and 6.6 kcal/mol | 2.9 kcal/mol and 4.4 kcal/mol
V88A | 3.12 kcal/mol/M and 2.01 kcal/mol/M and 2.82 kcal/mol/M | 2.66 M and 2.9 M and 3.2 M | 8.3 kcal/mol and 6.5 kcal/mol and 9 kcal/mol | 1.1 kcal/mol and 3 kcal/mol and 2 kcal/mol
E22Q |  |  | 7.6 kcal/mol and 8.9 kcal/mol and 11.4 kcal/mol | 
V65A | 2.61 kcal/mol/M and 2.77 kcal/mol/M and 2.84 kcal/mol/M |  |  | 
